From patent publication US20110207796A1, “ALPHA-SYNUCLEIN KINASE” (Elan Pharma International Limited, priority 2008, published 2011)

Molecular target: human alpha-synuclein (wild-type, recombinant) (human)
Experiment: cell-based or functional assay

Chain of Polo like kinase 2 (PLK2) (enzyme) (chain): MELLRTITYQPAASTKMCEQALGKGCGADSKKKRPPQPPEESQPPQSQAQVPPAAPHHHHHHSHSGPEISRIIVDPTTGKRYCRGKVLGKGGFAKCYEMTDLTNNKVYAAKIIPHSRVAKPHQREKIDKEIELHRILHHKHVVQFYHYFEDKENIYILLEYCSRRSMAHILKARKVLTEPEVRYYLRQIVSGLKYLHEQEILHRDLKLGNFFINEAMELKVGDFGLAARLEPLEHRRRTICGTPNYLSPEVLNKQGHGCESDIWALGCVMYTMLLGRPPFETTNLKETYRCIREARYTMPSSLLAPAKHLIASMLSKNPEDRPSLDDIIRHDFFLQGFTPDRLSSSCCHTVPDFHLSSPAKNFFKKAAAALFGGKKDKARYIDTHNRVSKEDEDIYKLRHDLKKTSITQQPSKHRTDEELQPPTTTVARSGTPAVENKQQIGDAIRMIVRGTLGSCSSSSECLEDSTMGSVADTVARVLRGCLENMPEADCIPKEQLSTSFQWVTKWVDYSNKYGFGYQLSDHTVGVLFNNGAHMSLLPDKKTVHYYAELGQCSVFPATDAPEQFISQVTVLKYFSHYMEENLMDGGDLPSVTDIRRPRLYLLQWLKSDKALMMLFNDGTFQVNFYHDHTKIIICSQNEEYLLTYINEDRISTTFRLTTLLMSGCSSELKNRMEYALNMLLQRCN
Chain of G protein-coupled receptor kinase 6 (P43250 whole entry): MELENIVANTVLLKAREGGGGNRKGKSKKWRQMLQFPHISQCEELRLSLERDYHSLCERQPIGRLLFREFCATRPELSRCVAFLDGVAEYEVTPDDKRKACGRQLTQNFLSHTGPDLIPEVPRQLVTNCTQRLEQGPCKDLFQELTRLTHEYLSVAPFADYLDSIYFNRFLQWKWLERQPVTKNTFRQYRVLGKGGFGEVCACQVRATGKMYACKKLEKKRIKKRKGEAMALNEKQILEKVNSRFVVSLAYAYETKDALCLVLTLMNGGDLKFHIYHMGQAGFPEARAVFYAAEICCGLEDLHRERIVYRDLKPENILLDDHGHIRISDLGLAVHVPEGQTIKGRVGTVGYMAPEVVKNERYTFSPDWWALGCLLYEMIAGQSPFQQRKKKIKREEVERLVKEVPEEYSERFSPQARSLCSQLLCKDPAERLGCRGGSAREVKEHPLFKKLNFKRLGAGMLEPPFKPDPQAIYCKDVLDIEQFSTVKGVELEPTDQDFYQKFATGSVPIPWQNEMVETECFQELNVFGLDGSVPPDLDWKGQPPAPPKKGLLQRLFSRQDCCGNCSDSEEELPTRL
Chain of CDC7 cell division cycle 7-like 1 (O00311 whole entry): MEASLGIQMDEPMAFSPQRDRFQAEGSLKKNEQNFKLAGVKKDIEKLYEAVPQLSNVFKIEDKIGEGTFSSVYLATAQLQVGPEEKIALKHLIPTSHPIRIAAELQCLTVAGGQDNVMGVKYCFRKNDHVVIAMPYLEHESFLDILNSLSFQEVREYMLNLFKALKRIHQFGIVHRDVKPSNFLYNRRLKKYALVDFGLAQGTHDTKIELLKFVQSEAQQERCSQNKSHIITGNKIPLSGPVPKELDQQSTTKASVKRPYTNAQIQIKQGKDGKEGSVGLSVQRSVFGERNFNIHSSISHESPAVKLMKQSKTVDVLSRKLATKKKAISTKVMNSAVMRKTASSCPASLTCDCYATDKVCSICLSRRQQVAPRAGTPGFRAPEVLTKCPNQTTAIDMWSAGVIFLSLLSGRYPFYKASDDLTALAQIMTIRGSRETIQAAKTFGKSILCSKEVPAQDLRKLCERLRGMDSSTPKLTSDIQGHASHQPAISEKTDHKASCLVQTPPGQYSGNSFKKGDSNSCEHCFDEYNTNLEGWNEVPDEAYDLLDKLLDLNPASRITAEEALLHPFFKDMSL
Chain of Aortic preferentially expressed gene 1 (Q15772 other isoform, or with tags, fused parts or gaps limits assumed): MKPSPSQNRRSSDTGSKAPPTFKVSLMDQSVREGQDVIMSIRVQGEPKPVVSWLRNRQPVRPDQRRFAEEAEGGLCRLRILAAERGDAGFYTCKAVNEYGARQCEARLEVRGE

Row | percentage of phospho-synuclein by ELISA, cDNA transfected into PEAK-Syn cells [%] | percent phospho-synuclein by ELISA, cDNA transfected into PEAK-Syn cells [%] | Substance | other results
1 | 8.9 | – | Aortic preferentially expressed gene 1 (from UniProt Q15772 1-113) (enzyme) | –
2 | 8.9 | – | CDC7 cell division cycle 7-like 1 (from UniProt O00311 1-574) (enzyme) | –
3 | – | 18.9 | G protein-coupled receptor kinase 6 (from UniProt P43250 1-576) (enzyme) | –
4 | – | 33.2 | Polo like kinase 2 (PLK2) (enzyme) | percent phospho-synuclein by ELISA, PLK2 alone transfected into HEK-synuclein cells: 18.6%; percent phospho-synuclein by ELISA, PLK2 and synuclein co-transfected into naive HEK cells: 60%; percent synuclein phosphorylation by ELISA, PLK2 positive control in HEK-syn cells: 65.8%; phospho-synuclein by ELISA, PLK2 cDNA transfected into 293-synuclein cells: 4.3 fold
